Results: publication PMC11847541, “Liver fatty acid binding protein FABP1 transfers substrates to cytochrome P450 4A11 for catalysis” (The Journal of Biological Chemistry, 2025)
Values joined by “and” are separate entries in the source; they are usually repeats but may differ in a detail not shown here. Equal values may be shown once. Read-outs that look alike come from different tables or passages of the source.

Columns and labels:
[1] = biological target: T1, P450 4A11 (Homo sapiens, UniProt Q02928); set-up: made in house; host or cells: E. coli; method as in PMID 25203493; settings: cited from earlier work
T1 sequence (Q02928 5-519): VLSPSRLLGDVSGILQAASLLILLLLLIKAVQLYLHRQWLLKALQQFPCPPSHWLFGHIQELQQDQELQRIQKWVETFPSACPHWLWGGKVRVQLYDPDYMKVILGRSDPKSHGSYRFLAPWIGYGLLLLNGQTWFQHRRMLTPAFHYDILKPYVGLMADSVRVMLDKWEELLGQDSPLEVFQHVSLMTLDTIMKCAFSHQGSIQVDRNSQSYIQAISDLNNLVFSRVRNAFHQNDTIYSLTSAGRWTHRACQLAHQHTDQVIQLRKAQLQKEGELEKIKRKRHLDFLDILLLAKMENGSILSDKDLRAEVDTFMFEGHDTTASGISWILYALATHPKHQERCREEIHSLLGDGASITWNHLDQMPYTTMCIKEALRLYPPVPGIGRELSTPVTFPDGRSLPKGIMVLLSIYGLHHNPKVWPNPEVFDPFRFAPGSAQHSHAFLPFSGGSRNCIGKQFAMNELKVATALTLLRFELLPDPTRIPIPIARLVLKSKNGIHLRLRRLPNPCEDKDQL

[2] = biological target: T1, P450 4A11
[3] = biological target: T2, P450 101A1 (P450cam) (Pseudomonas putida, UniProt P00183); test: Control fluorescence titration of Alexa-FABP1 with P450 101A1 (P450cam); format: binding, bacterial; settings: 100 mM KPhos
T2 construct: made in house
T2 sequence (P00183 whole entry, looked up): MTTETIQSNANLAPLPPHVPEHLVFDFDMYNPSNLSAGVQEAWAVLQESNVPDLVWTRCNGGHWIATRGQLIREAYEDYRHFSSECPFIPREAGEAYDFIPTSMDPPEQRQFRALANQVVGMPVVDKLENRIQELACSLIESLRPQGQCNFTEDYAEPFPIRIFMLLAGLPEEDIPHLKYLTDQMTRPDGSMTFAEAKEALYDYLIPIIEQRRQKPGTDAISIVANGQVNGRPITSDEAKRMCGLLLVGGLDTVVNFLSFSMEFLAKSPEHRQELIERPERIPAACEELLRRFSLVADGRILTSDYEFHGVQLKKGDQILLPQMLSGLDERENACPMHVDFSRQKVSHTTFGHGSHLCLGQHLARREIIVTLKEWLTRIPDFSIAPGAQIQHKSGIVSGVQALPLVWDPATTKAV
Experimental: (§1) The Alexa-FABP1 construct was tested for P450 binding in a fluorescence titration with P450 4A11.
(§2) Figure 10 Binding of Alexa-FABP1 to P450 4A11.A, equilibrium binding titration of Alexa-FABP1 (25 nM) with P450 4A11 as the titrant (0–50 nM). Titrations were performed in 10 mM (closed circles) or 100 mM (open circles) potassium phosphate buffer (pH 7.4). A control reaction was performed with P450 101A1 (P450cam) in 100 mM KPhos (open squares). The change in fluorescence upon protein–protein binding was normalized to the corresponding change in a buffer control. […] Each data point corresponds to one independent replicate, ≥3 biological replicates were collected to confirm the effect. B, kinetics of binding of Alexa-FABP1 (0.125 μM) and P450 4A11 (0.125 μM). Six traces were averaged, and the data were fit to a single exponential curve (in red). The extracted binding rate was 2.0 ± 0.2 s^−1. FABP1, fatty acid binding protein.

[4] = biological target: T3, P450 4A11 (Homo sapiens, UniProt Q02928); test: Alexa-FABP1 and P450 4A11 association kinetics (stopped-flow fluorescence); format: binding
T3 construct: made in house; host or cells: E. coli
T3 sequence (Q02928 5-519): T1 sequence (Q02928 5-519)
T3 sequence (P07148 with tags, fused parts or gaps partner): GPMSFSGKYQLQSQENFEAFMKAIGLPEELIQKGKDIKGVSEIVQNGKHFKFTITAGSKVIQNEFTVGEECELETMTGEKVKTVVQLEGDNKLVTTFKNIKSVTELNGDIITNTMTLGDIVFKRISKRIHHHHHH
Experimental: We then investigated whether the rate of protein–protein association could be estimated using our fluorescent construct. A solution of Alexa-FABP1 (125 nM final concentration) was rapidly mixed with P450 4A11 (125 Nm final concentration), and Alexa-488 fluorescence was monitored over time. The data were fit to a single exponential equation and yielded an association rate of 2.0 ± 0.2 s^−1 (Fig. 10B).
To estimate a rate of interaction for FABP1 and P450, we loaded the protein–protein binding data (Fig. 10B) and fit the data to a simple model, E+F↔EF , as described in the Experimental procedures section. The software fit a kon rate of 2.0 × 10^7 M^−1 s^−1, close to that estimated by using the extracted binding rate ∼2 s^−1 at the concentration (0.125 μM) of either reaction component (i.e., 2 s^−1/0.125 μM = 16 μM^−1 s^−1 = 1.6 × 10^7 M^−1 s^−1).
Mixing solutions (2 ml) of (A) Alexa-FABP1 (0.25 μM [estimated by A280 prior to conjugation reaction, accounting for dilution, and assuming no protein loss during the reaction as described earlier]) and (B) P450 4A11 (0.25 μM) were prepared in potassium phosphate buffer (100 mM, pH 7.4) and loaded into the stopped-flow spectrofluorometer described earlier. The instrument (1.24 mm slit width) was set with an excitation wavelength of 470 nm and Oriel end-on filter for emission >495 nm. The fluorescence maximum of Alexa-FABP1 is 510 nm as described earlier, and stimulation is observed upon protein–protein binding (see “Titrations of Alexa-FABP1 with P450 4A11”). At least six replicate measurements were recorded, the spectra were processed such that the fluorescence gain (from DAUDA binding) began at an (x, y) intercept of (0, 0), and the spectra were averaged. A smoothing factor of 0.4 was applied to the data (in Microsoft Excel), and the resulting curve was fit to a single exponential plot in GraphPad Prism, and the rate of association was extracted. The data were loaded into KinTek Explorer and fit to a minimal kinetic model of protein–protein association (i.e., E+F↔EF ), and a second-order rate constant for the association was extracted.

[5] = biological target: T3, P450 4A11; test: Fluorescence titration of Alexa-FABP1 with P450 4A11; format: binding
Experimental: as §1, §2
Alexa-FABP1 (25 nM [estimated by an asborbance at 280 nm prior to conjugation reaction, accounting for dilution, and assuming no protein loss during the reaction]) was prepared in potassium phosphate buffer (10 mM or 100 mM, pH 7.4) in a 1 ml glass cuvette. A buffer baseline was recorded using an OLIS DM-45 spectrofluorometer (1.24 mm slit width) with excitation wavelength of 470 nm and scanning emission spectra from 500 to 600 nm. P450 4A11 (stored in 100 mM potassium phosphate buffer [pH 7.4] containing 20% glycerol) was titrated (0–50 nM) into the Alexa-FABP1 solution. The same experiment was repeated but with the P450 4A11 buffer used as the titrant to normalize the data for any solvent effect. […] As stimulation was observed by the P450 interaction, the value of one was subtracted from the normalized fluorescence values so that the curve would have an (x, y) intercept of (0, 0). Kd values were calculated fitting plots of the normalized fluorescence at emission maximum versus concentration of P450 4A11 using a quadratic equation in GraphPad Prism software.

[6] = biological target: T4, Cytochrome P450 4A11 (human, UniProt Q02928 5-519); test: stopped-flow fluorescence kinetics; Alexa-FABP1 and P450 4A11 rapidly mixed, 0.125 μM each final; 100 mM potassium phosphate, pH 7.4; excitation 470 nm, emission >495 nm; single exponential fit and KinTek Explorer fit to E+F↔EF; settings: both partners purified
T4 construct: cytochrome P450 4A11, human fatty acid ω-hydroxylase
T4 sequence (looked up): T1 sequence (Q02928 5-519)

[7] = biological target: T4, Cytochrome P450 4A11; test: other fluorescence titration; Alexa-FABP1 (25 nM) in the cuvette, P450 4A11 titrated in (0–50 nM); 10 mM potassium phosphate, pH 7.4; excitation 470 nm, emission maximum 510 nm; quadratic fit; no phospholipid; settings: both partners purified
[8] = biological target: T4, Cytochrome P450 4A11; test: other fluorescence titration; Alexa-FABP1 (25 nM) in the cuvette, P450 titrated in (P450 4A11 0–50 nM); 100 mM potassium phosphate, pH 7.4; excitation 470 nm, emission maximum 510 nm; normalized to a buffer titration; no phospholipid; settings: both partners purified

O=C(O)CCCCCCCCCCCO [12-OH laurate]
P450 heme Soret spectral shift induced [1]: typical type I spectral shift

CC(=O)N1CCN(c2ccc(OCC3COC(Cn4ccnc4)(c4ccc(Cl)cc4Cl)O3)cc2)CC1 (centres unmarked) [ketoconazole]
P450 heme Soret spectral shift induced [2]: type II

Alexa-FABP1: FABP1 labeled at Cys-71 with Alexa-488 C5 maleimide
change of Alexa-FABP1 fluorescence [3]: mild attenuation of fluorescence | rate of protein–protein association ([4]; Alexa-FABP1 0.125 μM, P450 4A11 0.125 μM, single exponential): ~2 s⁻¹ and 2.0 ± 0.2 s⁻¹ | kon of FABP1–P450 4A11 association (k6) ([4]; KinTek fit to E+F↔EF): ~2e+07 M⁻¹ s⁻¹ | decrease of Kd on reducing ionic strength ([5]; 100 mM to 10 mM potassium phosphate): ~38 fold | Kd ([5]; dependent on ionic strength): 3 to 124 nM

B1: Alexa Fluor 488–labeled FABP1 (natural protein, human, UniProt P07148 1-127, looked up)
chain: MSFSGKYQLQSQENFEAFMKAIGLPEELIQKGKDIKGVSEIVQNGKHFKFTITAGSKVIQNEFTVGEECELETMTGEKVKTVVQLEGDNKLVTTFKNIKSVTELNGDIITNTMTLGDIVFKRISKRI
modifications: Alexa Fluor 488 C5 maleimide on Cys-71 of the construct (Cys-69 of FABP1); low background labeling of free amines
notes: final construct is a 15,185.4 Da protein; Cys-69 of FABP1 is Cys-71 in the construct. numbers count on: Cys-71 on the construct, Cys-69 on FABP1; The unlabeled, delipidated form of the same protein was used in the palmitate transfer and catalytic assays; also called Alexa-FABP1; Alexa-488-labeled FABP1; not shown: GST, N-terminal, cleaved; His6, C-terminal, kept
koff [6]: 2.4 s⁻¹ | kon [6]: 2e+07 M⁻¹ s⁻¹ | Kd [7]: 3.3 ± 0.9 nM | Kd [8]: 120 ± 80 nM
